Data on five proteins can be found in paper PMC8173106, “Modulating Enzyme Function via Dynamic Allostery within Biliverdin Reductase B” (Frontiers in Molecular Biosciences, 2021).

The Km is the concentration of substrate that gives half-maximal velocity. For orientation: kcat means the number of substrate molecules converted per active site and unit of time at saturation.

Positions count from the first letter of the chain named. In names and notes the source's numbering stands.

The chains are these.
B1: human BLVRB (biliverdin reductase B) (Homo sapiens; S111A) (protein)
chain: MAVKKIAIFGATGQTGLTTLAQAVQAGYEVTVLVRDSSRLPSEGPRPAHVVVGDVLQAADVDKTVAGQDAVIVLLGTRNDLSPTTVMSEGARNIVAAMKAHGVDKVVACTAAFLLWDPTKVPPRLQAVTDDHIRMHKVLRESGLKYVAVMPPHIGDQPLTGAYTVTLDGRGPSRVISKHDLGHFMLRCLTTDEYDGHSTYPSHQYQ
notes: full length, 206 residues; codon-optimised, pET21b (T164S in pJ401k); N-terminal 6xHis tag removed with thrombin
B2: human BLVRB (biliverdin reductase B) (Homo sapiens; H153A) (protein)
chain: B1 chain with A111S, H153A
notes: as for B1
B3: human BLVRB (biliverdin reductase B) (Homo sapiens; T164I) (protein)
chain: B1 chain with A111S, T164I
notes: as for B1
B4: human BLVRB (biliverdin reductase B) (Homo sapiens; T164A) (protein)
chain: B1 chain with A111S, T164A
notes: as for B1
B5: human BLVRB (biliverdin reductase B) (Homo sapiens; T164S) (protein)
chain: B1 chain with A111S, T164S
notes: as for B1

Substrate in the data set: Cc1cc2nc3c(=O)[nH]c(=O)nc-3n(C[C@H](O)[C@H](O)[C@H](O)COP(=O)(O)OP(=O)(O)OC[C@H]3O[C@@H](n4cnc5c(N)ncnc54)[C@H](O)[C@@H]3O)c2cc1C
As to the kind of experiment: purified protein. Format: biochemical, Homo sapiens. Conditions: co-substrate NADPH.
Consider B1, for which the Km stood at 325 ± 96 µM and the kcat is 0.021 ± 0.004 s⁻¹.
With B2, the Km was determined as 98 ± 11 µM and the turnover number (kcat) turned out to be 0.059 ± 0.003 s⁻¹.
For B3, the Km came to 156 ± 18 µM and the kcat was 0.049 ± 0.003 s⁻¹.
The corresponding values for B4 are 153 ± 18 µM and 0.063 ± 0.002 s⁻¹.
The corresponding values for B5 are 127 ± 15 µM and 0.039 ± 0.003 s⁻¹.
